Results as given in article PMC3720670, “Function and X-Ray crystal structure of Escherichia coli YfdE” (PLoS ONE, 2013).
Values belong to the molecule of their own block, whether it stands above or below them.

Columns and labels:
[1] = biological target: UctC (Acetobacter aceti strain 1023) (UniProt A9X6P9); assay: SEC; analytical gel filtration, Superdex 200 Hi-load 16/60, 50 mM Tris-HCl pH 8.0, 100 mM KCl; apparent solution molecular weights from retention times
[2] = substrate: CC(=O)SCCNC(=O)CCNC(=O)[C@H](O)C(C)(C)COP(=O)(O)OP(=O)(O)OC[C@H]1O[C@@H](n2cnc3c(N)ncnc32)[C@H](O)[C@@H]1OP(=O)(O)O; assay: HPLC of oxalyl-CoA formation, Michaelis-Menten fit; assay type: biochemical, Escherichia coli; details: 50 mM oxalate (subsaturating, value likely lower than true), 50 mM potassium phosphate, pH 6.7, parameter symbol, unit prefix and kcat unit not given, inferred
[3] = biological target: the molecule itself; assay: SEC; analytical gel filtration, Superdex 200 Hi-load 16/60, 50 mM Tris-HCl pH 8.0, 100 mM KCl; apparent solution molecular weights from retention times
[4] = substrate: CC(=O)SCCNC(=O)CCNC(=O)[C@H](O)C(C)(C)COP(=O)(O)OP(=O)(O)OC[C@H]1O[C@@H](n2cnc3c(N)ncnc32)[C@H](O)[C@@H]1OP(=O)(O)O; assay: HPLC of oxalyl-CoA formation, Michaelis-Menten fit; assay type: biochemical, Escherichia coli; details: 50 mM oxalate (subsaturating, value likely lower than true), 50 mM potassium phosphate, pH 6.7, parameter symbol, unit prefix and kcat unit not given, inferred; remark: listed apart in the source
Description: HPLC of oxalyl-CoA formation, Michaelis-Menten fit on H6YfdE

- stoichiometry N [1]: 2
Molecule: UctC (from UniProt A9X6P9 1-389) (enzyme)

B1: YfdE (Escherichia coli K-12) (protein)
chain: MTNNESKGPFEGLLVIDMTHVLNGPFGTQLLCNMGARVIKVEPPGHGDDTRTFGPYVDGQSLYYSFINHGKESVVLDLKNDHDKSIFINMLKQADVLAENFRPGTMEKLGFSWETLQEINPRLIYASSSGFGHTGPLKDAPAYDTIIQAMSGIMMETGYPDAPPVRVGTSLADLCGGVYLFSGIVSALYGREKSQRGAHVDIAMFDATLSFLEHGLMAYIATGKSPQRLGNRHPYMAPFDVFNTQDKPITICCGNDKLFSALCQALELTELVNDPRFSSNILRVQNQAILKQYIERTLKTQAAEVWLARIHEVGVPVAPLLSVAEAIKLPQTQARNMLIEAGGIMMPGNPIKISGCADPHVMPGAATLDQHGEQIRQEFSS
notes: untagged full-length, recombinant in E. coli BL21(DE3), plasmid pJK566 (Arg232 repaired), only partially purified; dimer
- Km ([2]; partially pure enzyme): 17 µM
- kcat ([2]; partially pure enzyme): 11 s⁻¹

B2: YfdE fused to an N-terminal hexahistidine tag (H6YfdE) (enzyme, Escherichia coli, UniProt P76518 1-381, looked up)
chain: MTNNESKGPFEGLLVIDMTHVLNGPFGTQLLCNMGARVIKVEPPGHGDDTRTFGPYVDGQSLYYSFINHGKESVVLDLKNDHDKSIFINMLKQADVLAENFRPGTMEKLGFSWETLQEINPRLIYASSSGFGHTGPLKDAPAYDTIIQAMSGIMMETGYPDAPPVRVGTSLADLCGGVYLFSGIVSALYGREKSQRGAHVDIAMFDATLSFLEHGLMAYIATGKSPQRLGNRHPYMAPFDVFNTQDKPITICCGNDKLFSALCQALELTELVNDPRFSSNILRVQNQAILKQYIERTLKTQAAEVWLARIHEVGVPVAPLLSVAEAIKLPQTQARNMLIEAGGIMMPGNPIKISGCADPHVMPGAATLDQHGEQIRQEFSS
notes: YfdE, Escherichia coli; yfdE gene amplified from genomic DNA of a strain BW25113 derivative; last residue Ser381; Expressed from pET28a (NdeI/XhoI); The appendage and the first five to six residues are disordered in the crystal; also called acetyl-CoA:oxalate CoA-transferase; ACOCT; source: E. coli C41(DE3), purified (ammonium sulfate, metal-charged nitrilotriacetic acid column); not shown: His6, …
- stoichiometry N [3]: 2

B3: H6YfdE (Escherichia coli K-12) (protein)
chain: MTNNESKGPFEGLLVIDMTHVLNGPFGTQLLCNMGARVIKVEPPGHGDDTRTFGPYVDGQSLYYSFINHGKESVVLDLKNDHDKSIFINMLKQADVLAENFRPGTMEKLGFSWETLQEINPRLIYASSSGFGHTGPLKDAPAYDTIIQAMSGIMMETGYPDAPPVRVGTSLADLCGGVYLFSGIVSALYGREKSQRGAHVDIAMFDATLSFLEHGLMAYIATGKSPQRLGNRHPYMAPFDVFNTQDKPITICCGNDKLFSALCQALELTELVNDPRFSSNILRVQNQAILKQYIERTLKTQAAEVWLARIHEVGVPVAPLLSVAEAIKLPQTQARNMLIEAGGIMMPGNPIKISGCADPHVMPGAATLDQHGEQIRQEFSS
notes: full-length with N-terminal hexahistidine tag kept, pET28a (pJK593), E. coli C41(DE3); last residue Ser381; dimer
- Km [4]: 18 µM
- kcat [4]: 12 s⁻¹

B4: YfdEH6 (Escherichia coli K-12) (protein)
chain: MTNNESKGPFEGLLVIDMTHVLNGPFGTQLLCNMGARVIKVEPPGHGDDTRTFGPYVDGQSLYYSFINHGKESVVLDLKNDHDKSIFINMLKQADVLAENFRPGTMEKLGFSWETLQEINPRLIYASSSGFGHTGPLKDAPAYDTIIQAMSGIMMETGYPDAPPVRVGTSLADLCGGVYLFSGIVSALYGREKSQRGAHVDIAMFDATLSFLEHGLMAYIATGKSPQRLGNRHPYMAPFDVFNTQDKPITICCGNDKLFSALCQALELTELVNDPRFSSNILRVQNQAILKQYIERTLKTQAAEVWLARIHEVGVPVAPLLSVAEAIKLPQTQARNMLIEAGGIMMPGNPIKISGCADPHVMPGAATLDQHGEQIRQEFSS
notes: full-length with C-terminal hexahistidine tag kept (stop codon converted to Ser), pJK594, E. coli C41(DE3)
- Km [2]: 13 µM
- kcat [2]: 6.9 s⁻¹
